This is an account of results in patent US5976877.

The assay deals with HLA class II molecules on the Burkitt lymphoma line Raji.

B1: LAG-3 protein (Lymphocyte Activation Gene-3), mature membrane protein of 470 amino acids (receptor)
chain: VPVVWAQEGAPAQLPCSPTIPLQDLSLLRRAGVTWQHQPDSGPPAAAPGHPLAPGPHPAAPSSWGPRPRRYTVLSVGPGGLRSGRLPLQPRVQLDERGRQRGDFSLWLRPARRADAGEYRAAVHLRDRALSCRLRLRLGQASMTASPPGSLRASDWVILNCSFSRPDRPASVHWFRNRGQGRVPVRESPHHHLAESFLFLPQVSPMDSGPWGCILTYRDGFNVSIMYNLTVLGLEPPTPLTVYAGAGSRVGLPCRLPAGVGTRSFLTAKWTPPGGGPDLLVTGDNGDFTLRLEDVSQAQAGTYTCHIHLQEQQLNATVTLAIITVTPKSFGSPGSLGKLLCEVTPVSGQERFVWSSLDTRSQRSFSGPWLEAQEAQLLSQPWQCQLYQGERLLGAAVYFTELSSPGAQRSGRAPGALPAGHLLLFLTLGVLSLLLLVTGAFGFHLWRRQWRPRRFSALEQGIHPRRLRAR
On to B1, for which the rosette formation / adhesion of Raji cells to transfected COS-7 cells is 23%.
